According to the nanobody polyreactivity screen of Harvey et al. (2022):

Experiment: yeast display, Sf9 membrane polyspecificity reagent, FACS + sequencing; frameworks hold sequencing errors
In short: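 A nanobody's polyreactivity label depends on the gate it was sorted from. Yeast display cells were stained with 10% biotinylated, detergent-solubilized Sf9 membrane reagent for 1 hour at 4 °C, enriched on streptavidin microbeads and sorted by FACS. The low and high (top ~1%) gates were set on anti-HA fluorescence for expression and streptavidin fluorescence for reagent binding.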

Sequence	polyreactivity (PSR sort gate)
QVQLVESGGGLVQAGGSLRLSCAASGSTFVDYAMGWYRQAPGKERELVAGITSGGSTNYADSVKGRFTISRDNAKNTVYLQMNSLKPEDTAVYYCNADPGQDTPGGISDEWYSVWLEYDYWGQGTQVTVSS	low polyreactivity
QVQLVESGGGLVQAGGSLRLSCAASGSTFVENAMGWYRQAPGKERELVAAITSSGGSTYYADSVKGRFSNSRDNAMNTVYLQMNSLKPEDTSVDYCGVDYIYDDAYNYWGQGTQVTVSS	high polyreactivity
QVQLVESGGGLVQAGGSLRLSCAASGSTFVFYAMGWYRQAPGKERELVAAITISGDITYYADSVKGRFTISRDNAKNTVYLQMNSLKPEDTAVYYCAADWHSWRWGYYYWGQGTQVTVSS	low polyreactivity
QVQLVESGGGLVQAGGSLRLSCAASGSTFVFYAMGWYRQAPGKERELVADITSGGRTSYADSVKGRFTISRDNAKNTVYLQLNSLKPEDTAVYYSAALTRWYAWYDYWGQGTQVTVSS	high polyreactivity
QVQLVESGGGLVQAGGSLRLSCAASGSTFVFYTMGWYRQAPGKEREFVASISGSGGSTYYADSVKGRFTISRDNAKNTVYLQMNSLKPEDTAVYYCAAGYPYYYWTPYYYWVQGTQVTVSS	high polyreactivity
QVQLVESGGGLVQAGGSLRLSCAASGSTFVGKVMGWYRQAPGKERELVAAISRGGSTYYADSVKGRFTISRDNAKNTVYLQMNSLKPEDTAVYYCAADVRPWGNYHAQYDYWGQGTQVTVSS	low polyreactivity
QVQLVESGGGLVQAGGSLRLSCAASGSTFVGNAMGWSRQAPGKERELVAAITSGGSTNYADSVKGRFTISRDNAKNTVYLQMNSLKPEDTAVYYCAKRVSGSPPTGGSLSDSWGQGTQVTVSS	high polyreactivity
QVQLVESGGGLVQAGGSLRLSCAASGSTFVGNAMGWYRQAPGKERELVAAITGGGGSTYYADSVKGRFTISRDNAKNSVYLQMNSLKPEDTAVDYCARDRTDYYVWYVRYYYWGQGTQVTVSS	low polyreactivity
QVQLVESGGGLVQAGGSLRLSCAASGSTFVGNAMGWYRQAPGKERELVAAITGGGGSTYYADSVKGRFTISRDNAKNTVYLQMNSLKPEDTAVYYCNKKLQRRSWYDYWGQGTQVTVSS	low polyreactivity
QVQLVESGGGLVQAGGSLRLSCAASGSTFVGNAMGWYRQEPGKERELVATISNSGGRTYYADSVKGRLTISRDNAKYTVYLQMNSLKPEDTAVYYCAADHPDFGPGYSFDYWGQGTQVTVSS	low polyreactivity
QVQLVESGGGLVQAGGSLRLSCAASGSTFVGYAMGWYRPAPGKERELVAAITIRGGSTYYADSVKGRFTISRDNAKNNVYLQMNSLKPEDTAVYYCAADYWYGGFEYWGQGTQVTVSS	low polyreactivity
QVQLVESGGGLVQAGGSLRLSCAASGSTFVGYAMGWYRQAPGKERELDAALSANVGGTYYADSVKGRFTISRDNAKNTVYLQMNSLKPEVTAVYYCAADYAYNYFWRPGDYWGQGTQVTVSS	low polyreactivity
QVQLVESGGGLVQAGGSLRLSCAASGSTFVGYAMGWYRQAPGKERELVAAISKSGGRTYYADSVKGRFTISRDNAKNTVYLQMNSLKPEDTAVYYCAAYFTRYDFRWHTYYYWGQGTQVTVSS	low polyreactivity
QVQLVESGGGLVQAGGSLRLSCAASGSTFVGYAMGWYRQAPGKERELVAAISRTGASTYYADSVKGRFTISRDNAKNTVYLQMNSLKPADTAVYYCAYYYSIYDYWGQGTQVTVSS	high polyreactivity
QVQLVESGGGLVQAGGSLRLSCAASGSTFVGYAMGWYRQAPGKERELVAAISYSGGSTYYADSVKGRFTISRDNAKNTVYLQMNSLKPEDTAVYYCAAEWSRHYYYGPRYDYWGQGTQVTVSS	low polyreactivity
QVQLVESGGGLVQAGGSLRLSCAASGSTFVHNAMGWYRQAPGKERELVARISFRSGRTYYADSVKGRFTISRDNAKNTVYLQMNSLKAEDTAVYYCNAVLYGQYKYDYWGQGTQVTVSS	high polyreactivity
QVQLVESGGGLVQAGGSLRLSCAASGSTFVIKAMGWYRQAPGKERELVAAITSGGDTNYADSVKGRFTISRDNSKYTVYLQMNSLKPEDTALYYCNARDGGQGNYSARYDYWGHGTQVTVSS	low polyreactivity
QVQLVESGGGLVQAGGSLRLSCAASGSTFVINAMGWYRPAPGKERELVARISSSGGRTDYADSVKGRFTISRDNAKNTVYLQMNSLKPEDTAVYYCAAATWLIPYTWRDPSQYNYWAQGTQVTVSS	low polyreactivity
QVQLVESGGGLVQAGGSLRLSCAASGSTFVIYDMGWYRQAPGKERELVAAISYSGGSTYYADSVKGRFTISRDNAKNTVYLQMNSLKPEDTAVYYCAAEGRSDWGGDDYYWGQGTQVTVSS	low polyreactivity
QVQLVESGGGLVQAGGSLRLSCAASGSTFVIYGMGWYRQAPGKERELVADITWIGGSTYYADSVKGRFTISRDNAKNTVYLQMNSLKPEDTAVYYCNADVRYGRDHWGQGTQVTVSS	low polyreactivity
QVQLVESGGGLVQAGGSLRLSCAASGSTFVKNTMGWYRQAPGKERELVAAISSRGGSTYYADSVKGRFTISRDNAKNTVYLQMNSLKPEDTAVYYCNALGLYSRYQQGEYDYWGQGTQVTVSS	low polyreactivity
QVQLVESGGGLVQAGGSLRLSCAASGSTFVKYAMGWYRQAPGKERELVAAITASGGRTYYADSVKGRFTISRDNAKNTVYLQMISLKPEDTAVYYCNARGYHYGTLFDYWGQGTQVTVSS	high polyreactivity

Sequence	polyreactivity (PSR sort gate)
QVQLVESGGGLVQAGGSLRLSCAASGSTFVKYAMGWYRQAPGKERELVATITRRGGNTYYADSVKGRFTISRDNAKYTVYLQMNSLKPEDTAVYYCAKYSRTKAFEYWGQGTQVTVSS	high polyreactivity
QVQLVESGGGLVQAGGSLRLSCAASGSTFVKYAMGWYRQAPGKERELVATITYSSGSTSYADSVKGRFTISRDNAKNTVYLQMNSLKPEDTAVYYCAKKDYTGYGYWGQGTQVTVSS	low polyreactivity
QVQLVESGGGLVQAGGSLRLSCAASGSTFVLDDMGWYRQAPGKERELDAAISYSGDSTNYAASVKGRFTISRDNAKNTVYLQMNSLKPEDTAVYYCNARQRTYYRTHRIRHKGNGYWGQGTQVTVSS	low polyreactivity
QVQLVESGGGLVQAGGSLRLSCAASGSTFVNYAMGWYRQAPGKERELVAAISSTGGSTYYADSVKGRFTISRDNAKNTVYLQMNSLKPEDTAVYYCAAYRYFKMGYWGQGTQVTVSS	high polyreactivity
QVQLVESGGGLVQAGGSLRLSCAASGSTFVPNAMGWYRQAPGKERELVAAITSGGITNYADSVQGRFTISRDNAKNTVYLQMNSLKPEDTAVYYCAVLYYILAPGYDYWGQGTQVTVSS	low polyreactivity
QVQLVESGGGLVQAGGSLRLSCAASGSTFVPNTMGWYRQAPGKDRELVAGITSGGSTYYADSVKGRFTISRDNAKNTVYLQMNSLKPEDTAVYYCAAGKHVTFSYEYRMDYWGQGSQVTVSS	low polyreactivity
QVQLVESGGGLVQAGGSLRLSCAASGSTFVPYAMGWYRQAPGKERELVARISRRGGSSTYYADSVKGRFTISRDNAKNTVYLQMNSLKPEDTAVYYCNKGHITFASVSSGPSPGGYWGQGTQVTVSS	low polyreactivity
QVQLVESGGGLVQAGGSLRLSCAASGSTFVPYAMGWYRQAPGKERELVASISWRGGSTSYADSVKGRFTISRDNAKNTVYLQMNSLKPEDTAVYYCAKRRYWAPYDYWGQGTQVTVSS	high polyreactivity
QVQLVESGGGLVQAGGSLRLSCAASGSTFVQNAMGWYRQAPGKERELVAAISKSGGRTYYADSVKGRFTISRDNEKNTVYLQINSLNAEDTAVYYCARPYSRAYDYWGQGTQVTVSS	high polyreactivity
QVQLVESGGGLVQAGGSLRLSCAASGSTFVQNAMGWYRQAPGKERELVAAISLRGGSTYYADSVKGRFTISRDNAKNTVYLQMNSLKPEDTAVYYCAADVSQRDGSVRGYDSWGQDTQVTVSS	high polyreactivity
QVQLVESGGGLVQAGGSLRLSCAASGSTFVRNAMGWYRQAPGKERELVAGISTGDNTYYADSVKGRFTISRDNAKNTVYLQMNSLKPEDSAVYYCAARGLPSNYYYYVHGYIMDYWGQGTQVTVSS	low polyreactivity
QVQLVESGGGLVQAGGSLRLSCAASGSTFVRNAMGWYRQAPGKERELVARISSSGGRTSYADSVKGRFTISRDNAKNTVYLQMNSLKPEDTAVYYCNARHYYIWWRSPTRTAMNYWGQGTQVTVSS	high polyreactivity
QVQLVESGGGLVQAGGSLRLSCAASGSTFVRNDMGWYRQAPGKERELVAAINGDGRTYYADSVKGRFTISRDNAKNTVYLQMNSLKPEDTAVYYCAADWKSSRSYSYEMDYWGQGTQVTVSS	low polyreactivity
QVQLVESGGGLVQAGGSLRLSCAASGSTFVRNVMGWYRQAPGKEREFVAAITRSGGSTYYADSVKGRFTISRDNAKNTVYLQMNSLKPEDTAVYYCIVPPGYRLSQYEYDYWGQGTQVTVSS	low polyreactivity
QVQLVESGGGLVQAGGSLRLSCAASGSTFVRYAMGWYRQAPGKERELVAAIRWSSGSTYYADSVKGRFTISRDNAKNTVYLQMNSLKPEDTAVYYCAKRQYLYTSKYDYWGQGTQVTVSS	high polyreactivity
QVQLVESGGGLVQAGGSLRLSCAASGSTFVRYAMGWYRQAPGKERELVAAISGGGSTSYADSVKGRFTISRDNAKNTVYLQMNSLKPEDTAVYYCAAEKYRWENDAYQYYTFDYWGQGTQVTVSS	low polyreactivity
QVQLVESGGGLVQAGGSLRLSCAASGSTFVRYAMGWYRQAPGKERELVAAISKRGGSTYYADSVKGRFTISRDNAKNTVYLQMNSLKPEDTAVYYCAAVPLSSRQYDYWGQGTQVTVSS	high polyreactivity
QVQLVESGGGLVQAGGSLRLSCAASGSTFVRYPMGWYRPAPGKERELVAGISRVGNTYYADSVKGRFTISRDNAKNTVYLQMNSLKPEDTAVYYCAARSSRWDGYDYWGQGTQVTVSS	high polyreactivity
QVQLVESGGGLVQAGGSLRLSCAASGSTFVSNAMGWYRQAPGKEREFVAAISGSGGSTYYADSVKGRFTISRDNAMNTVYLQMNSLKPEVTAVYYCATAGRYGRYRTYPYRSKYDYWGQGTQVTVSS	high polyreactivity
QVQLVESGGGLVQAGGSLRLSCAASGSTFVSNAMGWYRQAPGKESELVAAISSSGGRTSYADSVKGRFTISRDHANNTVYLQMNSLKPEDTAVYYCNTLVVPYTDFKTSYNVDYWGQGTQVTVSS	low polyreactivity
QVQLVESGGGLVQAGGSLRLSCAASGSTFVSYAMGWYRQAPGKERELVAGISWSGTRTYYADSVKGRFTISRDNAKNTVYLQMNSLKPEDTAVYYFNAVYKYNYRTLDYWGQGTQVTVSS	high polyreactivity
